Test results reported in publication PMC9105384, “Ethyl Gallate Dual-Targeting PTPN6 and PPARγ Shows Anti-Diabetic and Anti-Obese Effects” (International Journal of Molecular Sciences, 2022).

Test system: T1, Cc1cc(=O)oc2c(F)c(OP(=O)(O)O)c(F)cc12
T1 construct: Full-length human PTPN6 with an N-terminal hexahistidine (His6) tag
Experiment: Michaelis-Menten kinetics, fluorescence (Km)
Format: biochemical, Homo sapiens

PTPN6 (Homo sapiens)
Km: 86.26 µM
